Columns and labels:
[1] = target: T1, GST-ZBTB24 zinc finger domain (UniProt O43167 294-512); test: EMSA
[2] = target: T1, GST-ZBTB24 zinc finger domain; test: EMSA; remark: listed apart in the source
[3] = target: T1, GST-ZBTB24 zinc finger domain; test: competition

T1 sequence (O43167 294-512): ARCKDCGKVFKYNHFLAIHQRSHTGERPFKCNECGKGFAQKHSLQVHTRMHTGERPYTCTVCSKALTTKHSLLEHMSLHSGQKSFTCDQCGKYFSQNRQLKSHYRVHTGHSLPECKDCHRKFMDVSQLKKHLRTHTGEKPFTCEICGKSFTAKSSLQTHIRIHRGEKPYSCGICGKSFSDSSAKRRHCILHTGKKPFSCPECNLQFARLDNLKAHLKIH

| Binder | binding result [1] | also measured |
| --- | --- | --- |
| OSTC promoter (dsDNA) DNA 1: GTTAGAAGTCCCGCAGGTCCTTGAAGGTACACAAATCACC DNA 2: GGTGATTTGTGTACCTTCAAGGACCTGCGGGACTTCTAAC | binds | – |
| CAMKMT promoter wt (dsDNA) DNA 1: GGGAAGAAGTTGGCAGGTCCTGGCAGGGGACGAGCTGCGGC DNA 2: GCCGCAGCTCGTCCCCTGCCAGGACCTGCCAACTTCTTCCC | – | binding result [2]: binds |
| CAMKMT promoter mut1 (dsDNA) DNA 1: GGGAAGAAGTTGGCAGGTACTGGCAGGGGACGAGCTGCGGC DNA 2: GCCGCAGCTCGTCCCCTGCCAGTACCTGCCAACTTCTTCCC | – | binding result [3]: no binding |
| CAMKMT promoter mut2 (dsDNA) DNA 1: GGGAAGAAGTTGGCAGATACTGGCAGTGGACGAGCTGCGGC DNA 2: GCCGCAGCTCGTCCACTGCCAGTATCTGCCAACTTCTTCCC | – | binding result [3]: no binding |
| CDCA7 outside promoter motif (dsDNA) DNA 1: GGGTGCTGGACGCAGGCGGGCGCGGGCCGACCCTCTCCAA DNA 2: TTGGAGAGGGTCGGCCCGCGCCCGCCTGCGTCCAGCACCC | no binding | – |
| CDCA7 promoter (dsDNA) DNA 1: GGCCGTTACCACAGCTTGCAGGACCTGTGTCCCAACGCGG DNA 2: CCGCGTTGGGACACAGGTCCTGCAAGCTGTGGTAACGGCC | binds | – |
| GAPDH promoter (dsDNA) DNA 1: GAGCCTGGCGGGAGGCGGGGTCCGAGTCACCGCCTGCCGC DNA 2: GCGGCAGGCGGTGACTCGGACCCCGCCTCCCGCCAGGCTC | no binding | – |

From paper PMC6212772
